Source: PMC4546533

What was measured:
[1] = target: MmpL11-D1 (MmpL11 residues 41 – 187) (Mycobacterium tuberculosis) (UniProt P9WJT9); test: BLI
[2] = target: MmpL3-D1 (MmpL3 residues 32 – 187) (Mycobacterium tuberculosis) (UniProt P9WJV5); test: BLI
UniProt P9WJV5, sequence (P9WJV5 32-187): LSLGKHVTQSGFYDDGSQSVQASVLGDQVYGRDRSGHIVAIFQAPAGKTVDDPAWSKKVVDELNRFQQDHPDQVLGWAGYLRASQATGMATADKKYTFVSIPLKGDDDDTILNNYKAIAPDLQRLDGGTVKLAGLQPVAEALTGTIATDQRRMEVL

UniProt P9WJT9, sequence (P9WJT9 41-187): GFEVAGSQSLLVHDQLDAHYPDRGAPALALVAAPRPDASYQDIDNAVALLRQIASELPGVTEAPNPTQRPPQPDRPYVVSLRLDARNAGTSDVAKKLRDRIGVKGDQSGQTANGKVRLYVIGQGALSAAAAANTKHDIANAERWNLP

Substance	Kd [1] [µM]	Kd [2] [µM]
MmpL11-D2 (MmpL11 residues 390 – 529) (from UniProt P9WJT9 390-529) (domain or fragment)	4.5	
MmpL3-D2 (MmpL3 residues 419 – 560) (from UniProt P9WJV5 419-560) (domain or fragment)		4.1
